Results taken from patent US20220402995A1 (TOSOH, published 2022).
Numbering of substitutions follows the chain as printed.

Legend:
[1] = biological target: T1, VLP2 (virus-like particles of AAV2) (AAV2, UniProt P03135 1-735; P03135 1-598; P03135 1-533); experiment: ELISA on VLP2; binding after 43°C 15 min / untreated
T1 construct: Empty AAV2 capsid; background says about 60 protein molecules, VP1:VP2:VP3 = 1:1:10; Immobilised on the ELISA plate

[2] = biological target: T1, VLP2 (virus-like particles of AAV2); experiment: ELISA on VLP2; binding after pH 10.0 41.2°C 15 min / untreated

T1 sequence (P03135 whole entry, chain 1 of 3): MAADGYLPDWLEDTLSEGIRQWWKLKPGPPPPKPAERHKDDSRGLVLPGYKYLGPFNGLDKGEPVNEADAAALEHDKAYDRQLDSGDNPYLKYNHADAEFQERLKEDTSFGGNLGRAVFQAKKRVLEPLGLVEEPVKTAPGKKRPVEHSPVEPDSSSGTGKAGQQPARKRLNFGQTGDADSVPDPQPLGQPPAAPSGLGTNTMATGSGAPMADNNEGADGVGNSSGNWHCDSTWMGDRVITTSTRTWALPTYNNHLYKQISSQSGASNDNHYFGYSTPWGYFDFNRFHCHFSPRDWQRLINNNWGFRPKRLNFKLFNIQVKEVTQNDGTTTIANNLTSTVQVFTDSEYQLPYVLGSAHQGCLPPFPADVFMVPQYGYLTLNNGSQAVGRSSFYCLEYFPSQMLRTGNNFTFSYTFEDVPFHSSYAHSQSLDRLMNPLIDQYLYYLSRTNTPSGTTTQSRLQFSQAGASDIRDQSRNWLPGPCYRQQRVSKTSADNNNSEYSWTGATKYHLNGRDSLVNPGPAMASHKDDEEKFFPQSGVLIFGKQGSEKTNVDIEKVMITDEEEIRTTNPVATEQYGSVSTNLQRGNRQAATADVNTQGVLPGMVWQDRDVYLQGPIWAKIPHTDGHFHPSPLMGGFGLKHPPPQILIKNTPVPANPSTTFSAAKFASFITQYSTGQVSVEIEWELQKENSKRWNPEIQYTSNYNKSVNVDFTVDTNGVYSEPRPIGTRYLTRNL
T1 sequence (P03135 139-735, tags left off, chain 2 of 3): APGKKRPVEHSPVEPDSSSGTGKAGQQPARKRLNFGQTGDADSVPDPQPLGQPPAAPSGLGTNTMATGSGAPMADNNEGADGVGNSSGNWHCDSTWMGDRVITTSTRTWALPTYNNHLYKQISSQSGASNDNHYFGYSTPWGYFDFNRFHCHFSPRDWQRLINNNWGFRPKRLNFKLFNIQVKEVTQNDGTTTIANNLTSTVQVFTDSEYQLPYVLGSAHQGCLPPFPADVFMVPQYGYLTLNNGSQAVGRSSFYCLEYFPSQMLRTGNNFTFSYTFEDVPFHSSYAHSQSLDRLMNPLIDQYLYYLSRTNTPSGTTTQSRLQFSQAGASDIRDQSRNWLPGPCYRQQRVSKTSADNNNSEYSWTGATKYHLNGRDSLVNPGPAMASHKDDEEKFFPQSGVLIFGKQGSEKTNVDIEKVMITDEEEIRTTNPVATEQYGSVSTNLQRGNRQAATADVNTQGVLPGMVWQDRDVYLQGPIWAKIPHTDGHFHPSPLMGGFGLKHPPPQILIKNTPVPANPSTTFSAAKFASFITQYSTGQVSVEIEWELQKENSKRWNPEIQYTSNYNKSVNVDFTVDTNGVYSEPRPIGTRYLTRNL
T1 sequence (P03135 203-735, chain 3 of 3): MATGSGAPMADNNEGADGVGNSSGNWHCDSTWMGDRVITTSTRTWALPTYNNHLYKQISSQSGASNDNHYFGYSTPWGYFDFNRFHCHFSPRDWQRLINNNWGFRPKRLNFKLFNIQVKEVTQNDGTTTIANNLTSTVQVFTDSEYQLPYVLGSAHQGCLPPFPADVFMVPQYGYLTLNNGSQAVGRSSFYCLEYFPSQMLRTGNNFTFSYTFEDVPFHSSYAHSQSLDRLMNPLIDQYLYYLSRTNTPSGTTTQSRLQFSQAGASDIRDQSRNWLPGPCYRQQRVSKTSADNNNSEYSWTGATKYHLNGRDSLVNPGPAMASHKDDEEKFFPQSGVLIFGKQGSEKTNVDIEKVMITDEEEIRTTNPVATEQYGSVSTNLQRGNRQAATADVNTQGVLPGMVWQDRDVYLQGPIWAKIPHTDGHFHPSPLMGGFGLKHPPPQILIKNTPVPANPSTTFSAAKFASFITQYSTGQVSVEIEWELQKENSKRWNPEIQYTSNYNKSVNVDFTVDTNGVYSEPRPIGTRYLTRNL

B1: AAV-binding protein No. 1 (Asn324Asp) (receptor)
chain: MGSAGESVQITLPKDEVQLNAYVLQEPPKGETYTYDWQLITHPRDYSGEMEGKHSQILKLSKLTPGLYEFKVIVEGQNAHGEGYVNVTVKPEPRKNRPPIAIVSPQFQEISLPTTSTVIDGSQSTDDDKIVQYHWEELKGPLREEKISEDTAILKLSKLVPGNYTFSLTVVDSDGATNSTTANLTVNKAVDHHHHHH
Residual activity [%] [1]: 46%

B2: AAV-binding protein No. 51 (Leu333Pro, Pro337Leu, Thr350Met) (receptor)
chain: B1 chain with D15N, L24P, P28L, T41M
Residual activity [%] [1]: 66.7%

B3: AAV-binding protein No. 107 (AVR8g + Ser356Cys) (receptor)
chain: B1 chain with V8D, D15N, Y33C, S47C, K53E, K62N, G81S, K90E, S167R, N178D
Residual activity [%] [2]: 67.6%

B4: AAV-binding protein No. 12 (Ser356Cys) (receptor)
chain: B1 chain with D15N, S47C
Residual activity [%] [1]: 84.6%

B5: AAV-binding protein No. 104 (AVR8g + Tyr344Phe) (receptor)
chain: B1 chain with V8D, D15N, Y33C, Y35F, K53E, K62N, G81S, K90E, S167R, N178D
Residual activity [%] [2]: 40.3%

B6: AAV-binding protein No. 3 (Lys338Glu) (receptor)
chain: B1 chain with D15N, K29E
Residual activity [%] [1]: 52.6%

B7: AAV-binding protein No. 31 (Tyr342His, Ile349Thr) (receptor)
chain: B1 chain with D15N, Y33H, I40T
Residual activity [%] [1]: 66.8%

B8: AAV-binding protein No. 34 (Trp346Arg, Glu458Gly) (receptor)
chain: B1 chain with D15N, W37R, E149G
Residual activity [%] [1]: 78.1%

B9: AAV-binding protein No. 8 (His351Leu) (receptor)
chain: B1 chain with D15N, H42L
Residual activity [%] [1]: 68.7%

B10: AAV-binding protein No. 40 (Phe379Ser, Lys455Arg) (receptor)
chain: B1 chain with D15N, F70S, K146R
Residual activity [%] [1]: 77.4%

B11: AAV-binding protein No. 33 (Tyr344His, His363Arg) (receptor)
chain: B1 chain with D15N, Y35H, H54R
Residual activity [%] [1]: 82.2%

B12: AAV-binding protein No. 50 (Val332Gln, Tyr342Cys, Val412Ala) (receptor)
chain: B1 chain with D15N, V23Q, Y33C, V103A
Residual activity [%] [1]: 80.3%

B13: AAV-binding protein No. 105 (AVR8g + Arg353Cys) (receptor)
chain: B1 chain with V8D, D15N, Y33C, R44C, K53E, K62N, G81S, K90E, S167R, N178D
Residual activity [%] [2]: 62.1%

B14: AAV-binding protein No. 14 (Gln365Arg) (receptor)
chain: B1 chain with D15N, Q56R
Residual activity [%] [1]: 57.7%

B15: AAV-binding protein No. 103 (AVR8g + Glu340Val) (receptor)
chain: B1 chain with V8D, D15N, E31V, Y33C, K53E, K62N, G81S, K90E, S167R, N178D
Residual activity [%] [2]: 35%

B16: AAV-binding protein No. 54 (His363Leu, Ser364Pro, His389Leu) (receptor)
chain: B1 chain with D15N, H54L, S55P, H80L
Residual activity [%] [1]: 87.2%

B17: AAV-binding protein No. 39 (Ile366Thr, Gln441Leu) (receptor)
chain: B1 chain with D15N, I57T, Q132L
Residual activity [%] [1]: 65.5%

B18: AAV-binding protein No. 25 (Asn324Asp, Tyr355His) (receptor)
chain: B1 chain with Y46H
Residual activity [%] [1]: 77.6%

B19: AAV-binding protein No. 7 (Leu348Pro) (receptor)
chain: B1 chain with D15N, L39P
Residual activity [%] [1]: 69.6%

B20: AAV-binding protein No. 44 (Gln327Arg, Lys338Arg, Leu348Pro) (receptor)
chain: B1 chain with D15N, Q18R, K29R, L39P
Residual activity [%] [1]: 76.1%

B21: AAV-binding protein No. 22 (Leu477Pro) (receptor)
chain: B1 chain with D15N, L168P
Residual activity [%] [1]: 79.9%

B22: AAV-binding protein No. 52 (Leu348Pro, Leu376Pro, Val396Ala) (receptor)
chain: B1 chain with D15N, L39P, L67P, V87A
Residual activity [%] [1]: 80.9%

B23: AAV-binding protein No. 41 (Glu453Gly, Ser476Arg) (receptor)
chain: B1 chain with D15N, E144G, S167R
Residual activity [%] [1]: 56.1%

B24: AAV-binding protein No. 26 (Asn329Tyr, Lys399Arg) (receptor)
chain: B1 chain with D15N, N20Y, K90R
Residual activity [%] [1]: 61.9%

B25: AAV-binding protein No. 108 (AVR8g + Met359Leu) (receptor)
chain: B1 chain with V8D, D15N, Y33C, M50L, K53E, K62N, G81S, K90E, S167R, N178D
Residual activity [%] [2]: 32.4%

B26: AAV-binding protein No. 11 (Tyr355Asn) (receptor)
chain: B1 chain with D15N, Y46N
Residual activity [%] [1]: 80.6%

B27: AAV-binding protein No. 4 (Tyr344His) (receptor)
chain: B1 chain with D15N, Y35H
Residual activity [%] [1]: 88.2%

B28: AAV-binding protein No. 106 (AVR8g + Tyr355Cys) (receptor)
chain: B1 chain with V8D, D15N, Y33C, Y46C, K53E, K62N, G81S, K90E, S167R, N178D
Residual activity [%] [2]: 63.8%

B29: AAV-binding protein No. 20 (Lys399Glu) (receptor)
chain: B1 chain with D15N, K90E
Residual activity [%] [1]: 63.3%

B30: AAV-binding protein No. 18 (Tyr393Cys) (receptor)
chain: B1 chain with D15N, Y84C
Residual activity [%] [1]: 86.4%

B31: AAV-binding protein No. 6 (Trp346Leu) (receptor)
chain: B1 chain with D15N, W37L
Residual activity [%] [1]: 85.7%

B32: AAV-binding protein No. 27 (Tyr331Cys, Leu376Pro) (receptor)
chain: B1 chain with D15N, Y22C, L67P
Residual activity [%] [1]: 74.4%

B33: AAV-binding protein No. 55 (Gln365Arg, Ser370Ala, Glu391Lys) (receptor)
chain: B1 chain with D15N, Q56R, S61A, E82K
Residual activity [%] [1]: 65.7%

B34: AAV-binding protein No. 21 (Tyr442Phe) (receptor)
chain: B1 chain with D15N, Y133F
Residual activity [%] [1]: 48.7%

B35: AAV-binding protein No. 46 (Asn329Asp, Ile366Thr, Lys368Arg) (receptor)
chain: B1 chain with D15N, N20D, I57T, K59R
Residual activity [%] [1]: 49.3%

B36: AAV-binding protein No. 17 (Phe379Ser) (receptor)
chain: B1 chain with D15N, F70S
Residual activity [%] [1]: 80.9%

B37: AAV-binding protein No. 57 (Gln334Arg, Val381Ala, His389Arg, Tyr393Cys) (receptor)
chain: B1 chain with D15N, Q25R, V72A, H80R, Y84C
Residual activity [%] [1]: 79%

B38: AAV-binding protein No. 42 (Ile319Phe, Pro322Leu, Lys448Arg) (receptor)
chain: B1 chain with I10F, P13L, D15N, K139R
Residual activity [%] [1]: 56.6%

B39: AAV-binding protein No. 23 (Asn487Asp) (receptor)
chain: B1 chain with D15N, N178D
Residual activity [%] [1]: 58.3%

B40: AAV-binding protein No. 15 (Leu367Pro) (receptor)
chain: B1 chain with D15N, L58P
Residual activity [%] [1]: 56.9%

B41: AAV-binding protein No. 10 (Arg353Cys) (receptor)
chain: B1 chain with D15N, R44C
Residual activity [%] [1]: 84.3%

B42: AAV-binding protein No. 13 (Gly357Cys) (receptor)
chain: B1 chain with D15N, G48C
Residual activity [%] [1]: 97%

B43: AAV-binding protein No. 28 (Tyr331Cys, Glu384Gly) (receptor)
chain: B1 chain with D15N, Y22C, E75G
Residual activity [%] [1]: 83.7%

B44: AAV-binding protein No. 19 (Val396Ala) (receptor)
chain: B1 chain with D15N, V87A
Residual activity [%] [1]: 62.3%

B45: AAV-binding protein No. 38 (Gln365Arg, Gln415Leu) (receptor)
chain: B1 chain with D15N, Q56R, Q106L
Residual activity [%] [1]: 65.3%

B46: AAV-binding protein No. 48 (Ala330Gly, Gln347Pro, Lys371Glu) (receptor)
chain: B1 chain with D15N, A21G, Q38P, K62E
Residual activity [%] [1]: 88.4%

B47: AAV-binding protein No. 5 (Asp345Asn) (receptor)
chain: B1 chain with D15N, D36N
Residual activity [%] [1]: 71.4%

B48: AAV-binding protein No. 56 (Asn324Ser, Thr341Ala, Leu369Pro, Phe416Ser) (receptor)
chain: B1 chain with D15S, T32A, L60P, F107S
Residual activity [%] [1]: 81.3%

B49: AAV-binding protein No. 2 (Tyr331Cys) (receptor)
chain: B1 chain with D15N, Y22C
Residual activity [%] [1]: 73.4%

B50: AAV-binding protein No. 37 (Gln365Arg, His389Gln) (receptor)
chain: B1 chain with D15N, Q56R, H80Q
Residual activity [%] [1]: 70.1%

B51: AAV-binding protein No. 35 (Gln347Leu, Thr373Ala) (receptor)
chain: B1 chain with D15N, Q38L, T64A
Residual activity [%] [1]: 85.9%

B52: AAV-binding protein No. 24 (Asn492Asp) (receptor)
chain: B1 chain with D15N, N183D
Residual activity [%] [1]: 63.2%
